The record followed here is patent US20170145113A1 (Genentech, published 2017).

The Kd is a measure of binding affinity in units of concentration. By koff is commonly meant the first-order rate constant of dissociation. In general, kon refers to the rate constant with which the complex forms. A lower kon goes with slow association.

Test [1] concerns the target T1, His-tagged human HtrA1 protease domain (human, UniProt Q92743 161-367).
T1 construct: His-tagged protease domain; also called huHtrA1-PD-His; huHtrA1-PD
The test can be described thus: phage competition ELISA (Fab on phage, HtrA1 in solution). The procedure:
(§1) MAXISORP™ microliter plates were coated with human HtrA1-PD-His at 2 μg/ml in PBS for 2 h and then blocked with PBST buffer (0.5% BSA and 0.05% TWEEN®20 in PBS) for 1 h at room temperature. Phage purified from culture supernatants were incubated with serially-diluted human or murine HtrA1 in PBST buffer in a tissue-culture microtiter plate for 1 h, after which 80 μl of the mixture was transferred to human HtrA1-coated wells for 15 min to capture unbound phage. The plate was washed with PBT buffer (0.05% TWEEN®20 in PBS), and HRP-conjugated anti-M13 antibody (Amersham Pharmacia Biotech) was added (1:5000 in PBST buffer) for 40 min. The plate was washed with PBT buffer and developed by adding tetramethylbenzidine substrate (Kirkegaard and Perry Laboratories, Gaithersburg, Md.). The absorbance at 450 nm was plotted as a function of target concentration in solution to determine phage IC50.

Test [2] concerns the target T1, His-tagged human HtrA1 protease domain. Nature of the test: cell-based or functional assay.
For test [3] the target is unchanged. The test can be described thus: BIACORE SPR analysis, Fab format. As to the method:
(§2) To determine the binding affinity of selected Fab variants for HtrA1, SPR measurement with a BIACORE™ T200 instrument was performed. Briefly, a series S sensor chip CM5 was activated with 1-EDC and NHS reagents according to the supplier's instructions, and anti-His antibody was coupled to achieve 200-300 response units (RU), then following by blocking un-reacted groups with 1 M ethanolamine. For kinetics measurements, approximately 5 nM of huHtrA1-PD-His was first injected at 10 μl/min flow rate to capture approximately 100 RU at 2 different flow cells (FC), except for FC1 (which served as a reference). Next, 5-fold serial dilutions of Fab in HBS-P buffer (0.01M HEPES pH 7.4, 0.15M NaCl, 0.005% surfactant P20) from low (0.8 nM) to high (50 nM) were injected (flow rate: 30 μl/min). The binding responses on HtrA1 were corrected by subtracting of RU from a blank flow cell. The sensorgram was recorded and subject to reference and buffer subtraction before evaluating by BIACORE® T200 Evaluation Software (version 2.0). Association rates (kₒₙ) and dissociation rates (koff) were calculated using a simple one-to-one Langmuir binding model. The equilibrium dissociation constant (KD) was calculated as the ratio of koff/kₒₙ.

Test [4] shares this target. The test can be described thus: BIACORE SPR, Fab analyte, Human HtrA1-PD (N=2).
Test [5] has the same target. The test can be described thus: BIACORE T200 SPR; Fab analyte over huHtrA1-PD-His captured by anti-His antibody. The procedure:
as §2

Test [6] has the same target. The test can be described thus: SPR (BIACORE), Fab.
Test [7] has the same target. The test can be described thus: BIACORE SPR, single-cycle kinetics; Fab analyte over captured human HtrA1.
The target of test [8] is T2, His-tagged recombinant murine HtrA1 protease domain (murine, UniProt Q9R118 156-367).
T2 construct: His-tagged protease domain; also called muHtrA1-PD-His; muHtrA1-PD
The test can be described thus: phage competition ELISA (Fab on phage, HtrA1 in solution). The procedure:
as §1
On the technique in general: ELISA stands for enzyme-linked immunosorbent assay.

The target in test [9] is purified full-length human HtrA1 (human, UniProt Q92743 23-480). Nature of the test: cell-based or functional assay.
Sequence of purified full-length human HtrA1 (Q92743 23-480): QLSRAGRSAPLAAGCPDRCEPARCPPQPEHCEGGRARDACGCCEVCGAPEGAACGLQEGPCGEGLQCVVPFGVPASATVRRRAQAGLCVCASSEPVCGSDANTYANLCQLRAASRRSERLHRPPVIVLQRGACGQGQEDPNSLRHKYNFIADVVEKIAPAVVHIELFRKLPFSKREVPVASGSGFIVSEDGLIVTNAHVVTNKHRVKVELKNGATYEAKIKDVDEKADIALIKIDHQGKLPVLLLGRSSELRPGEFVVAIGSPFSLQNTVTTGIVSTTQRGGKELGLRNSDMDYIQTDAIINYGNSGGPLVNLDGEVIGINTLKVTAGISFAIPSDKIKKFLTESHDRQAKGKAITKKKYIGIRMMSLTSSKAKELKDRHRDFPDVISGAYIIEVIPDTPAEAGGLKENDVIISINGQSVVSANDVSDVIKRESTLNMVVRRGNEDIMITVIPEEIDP
The target in test [10] is purified full-length murine HtrA1 (murine, UniProt Q9R118 23-480). Nature of the test: cell-based or functional assay.
The target in test [11] is T3, murine HtrA4 protease domain (murine, UniProt A2RT60 160-371, limits assumed).
T3 construct: domain: PD (protease domain); also called muHtrA4-PD; murine HtrA4-PD
T3 sequence (looked up): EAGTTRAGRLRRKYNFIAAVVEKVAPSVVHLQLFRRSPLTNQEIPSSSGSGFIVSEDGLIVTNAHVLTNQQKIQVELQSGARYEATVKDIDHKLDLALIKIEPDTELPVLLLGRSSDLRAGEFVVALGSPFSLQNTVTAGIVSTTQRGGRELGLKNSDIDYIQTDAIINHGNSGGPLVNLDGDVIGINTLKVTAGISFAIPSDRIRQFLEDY
The test can be described thus: ELISA, hybridoma clone.

T1 sequence (Q92743 other isoform, or with tags, fused parts or gaps limits assumed): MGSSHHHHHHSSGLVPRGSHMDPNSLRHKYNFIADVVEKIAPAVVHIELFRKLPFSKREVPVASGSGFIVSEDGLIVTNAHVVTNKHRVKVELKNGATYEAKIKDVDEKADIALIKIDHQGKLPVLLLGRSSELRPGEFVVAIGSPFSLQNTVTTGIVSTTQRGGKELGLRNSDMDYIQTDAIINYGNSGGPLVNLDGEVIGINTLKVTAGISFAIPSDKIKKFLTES

B1: h15H6.v1 HC-A67V variant (Fab, V domains shown)
VH: EVQLVQSGAEVKKPGASVKVSCKASGYTFTDSEMHWVRQAPGQGLEWIGGVDPETDGAAYNQKFKGRVTLTADTSTSTAYLELSSLRSEDTAVYYCTRGYDYDYALDYWGQGTLVTVSS
VL: DIQMTQSPSSLSASVGDRVTITCRASSSVNFIHWYQQKPGKAPKPWISATSNLASGVPSRFSGSGSGTDFTLTISSLQPEDFATYYCQQWSSNPWTFGQGTKVEIK
notes: built as h15H6.v1
In the case of B1, the binding result in test [1] is “binds”.

B2: h15H6.v2.APEG Fab (Fab, name in Kabat numbering, V domains shown)
VH: EVQLVQSGAEVKKPGASVKVSCKASGYTFTDSEMHWVRQAPGQGLEWIGGVDPETEGAAYNQKFKGRATITRDTSTSTAYLELSSLRSEDTAVYYCTRGYDYDYALDYWGQGTLVTVSS
VL: DIQMTQSPSSLSASVGDRVTITCRASSSVNFIHWYQQKPGKAPKPLISATSNLASGVPSRFSGSGSGTDFTLTISSLQPEDFATYYCQQWSSAPWTFGQGTKVEIK
notes: also called h15H6.v3; LC-N94A LC-P95 HC-D55E HC-G56
As to B2, in test [2], the “IC50 FRET (H2-Opt substrate cleavage)” value came to 410 pM, the “IC90 FRET (H2-Opt substrate cleavage)” value was 2770 pM and the “Max inhibition (FRET H2-Opt assay)” value was 77. In test [3], this molecule returned a Kd of 546 pM, a koff of 0.000172 s⁻¹ and a kon of 315000 M⁻¹ s⁻¹. In test [4], the Kd is 600 pM, the koff came to 0.00021 s⁻¹ and the kon is 350000 M⁻¹ s⁻¹. For the same molecule, in test [5], the Kd came out at 546 pM, the koff came to 0.000172 s⁻¹ and the kon stood at 315000 M⁻¹ s⁻¹.

B3: h15H6.v2 LC-N94S LC-P95 Fab (Fab, V domains shown)
VH: EVQLVQSGAEVKKPGASVKVSCKASGYTFTDSEMHWVRQAPGQGLEWIGGVDPETDGAAYNQKFKGRATITRDTSTSTAYLELSSLRSEDTAVYYCTRGYDYDYALDYWGQGTLVTVSS
VL: DIQMTQSPSSLSASVGDRVTITCRASSSVNFIHWYQQKPGKAPKPLISATSNLASGVPSRFSGSGSGTDFTLTISSLQPEDFATYYCQQWSSSPWTFGQGTKVEIK
notes: Produced as Fab; also called SP
Regarding B3, in test [6], the “fold reduction in binding affinity against h15H6.v2” value was roughly 2 fold. In [7], binding was characterised by a dissociation constant (Kd) of 520 pM, the koff was determined as 0.00025 s⁻¹ and the kon worked out at 480000 M⁻¹ s⁻¹.

B4: h15H6.v1 LC-S49Y variant (Fab, V domains shown)
VH: EVQLVQSGAEVKKPGASVKVSCKASGYTFTDSEMHWVRQAPGQGLEWIGGVDPETDGAAYNQKFKGRATLTADTSTSTAYLELSSLRSEDTAVYYCTRGYDYDYALDYWGQGTLVTVSS
VL: DIQMTQSPSSLSASVGDRVTITCRASSSVNFIHWYQQKPGKAPKPWIYATSNLASGVPSRFSGSGSGTDFTLTISSLQPEDFATYYCQQWSSNPWTFGQGTKVEIK
notes: built as h15H6.v1
As for B4, the “fold reduction of binding against h15H6.v1” value in test [8] and in test [1] was roughly 10 fold in each case.

B5: h15H6.v1 HC-L69I variant (Fab, V domains shown)
VH: EVQLVQSGAEVKKPGASVKVSCKASGYTFTDSEMHWVRQAPGQGLEWIGGVDPETDGAAYNQKFKGRATITADTSTSTAYLELSSLRSEDTAVYYCTRGYDYDYALDYWGQGTLVTVSS
VL: DIQMTQSPSSLSASVGDRVTITCRASSSVNFIHWYQQKPGKAPKPWISATSNLASGVPSRFSGSGSGTDFTLTISSLQPEDFATYYCQQWSSNPWTFGQGTKVEIK
notes: built as h15H6.v1
B5: the binding result in test [8] and in test [1] was “binds” throughout.

B6: h15H6.v1 LC-W47L variant (Fab, V domains shown)
VH: EVQLVQSGAEVKKPGASVKVSCKASGYTFTDSEMHWVRQAPGQGLEWIGGVDPETDGAAYNQKFKGRATLTADTSTSTAYLELSSLRSEDTAVYYCTRGYDYDYALDYWGQGTLVTVSS
VL: DIQMTQSPSSLSASVGDRVTITCRASSSVNFIHWYQQKPGKAPKPLISATSNLASGVPSRFSGSGSGTDFTLTISSLQPEDFATYYCQQWSSNPWTFGQGTKVEIK
notes: its VL equals the VL of h15H6.v2, which carries LC-W47L as its only light chain change
As to B6, the binding result in test [8] and in test [1] was “binds” throughout.

B7: h15H6.v1 HC-T93A variant (Fab, V domains shown)
VH: EVQLVQSGAEVKKPGASVKVSCKASGYTFTDSEMHWVRQAPGQGLEWIGGVDPETDGAAYNQKFKGRATLTADTSTSTAYLELSSLRSEDTAVYYCARGYDYDYALDYWGQGTLVTVSS
VL: DIQMTQSPSSLSASVGDRVTITCRASSSVNFIHWYQQKPGKAPKPWISATSNLASGVPSRFSGSGSGTDFTLTISSLQPEDFATYYCQQWSSNPWTFGQGTKVEIK
notes: built as h15H6.v1
Take B7: the binding result in test [1] is given as “binds”.

B8: h15H6.v1 HC-A71R variant (Fab, V domains shown)
VH: EVQLVQSGAEVKKPGASVKVSCKASGYTFTDSEMHWVRQAPGQGLEWIGGVDPETDGAAYNQKFKGRATLTRDTSTSTAYLELSSLRSEDTAVYYCTRGYDYDYALDYWGQGTLVTVSS
VL: DIQMTQSPSSLSASVGDRVTITCRASSSVNFIHWYQQKPGKAPKPWISATSNLASGVPSRFSGSGSGTDFTLTISSLQPEDFATYYCQQWSSNPWTFGQGTKVEIK
notes: built as h15H6.v1
As for B8, the binding result in test [8] and in test [1] was “binds” throughout.

B9: h15H6.v2 LC-N94Q LC-P95 Fab (Fab, V domains shown)
VH: EVQLVQSGAEVKKPGASVKVSCKASGYTFTDSEMHWVRQAPGQGLEWIGGVDPETDGAAYNQKFKGRATITRDTSTSTAYLELSSLRSEDTAVYYCTRGYDYDYALDYWGQGTLVTVSS
VL: DIQMTQSPSSLSASVGDRVTITCRASSSVNFIHWYQQKPGKAPKPLISATSNLASGVPSRFSGSGSGTDFTLTISSLQPEDFATYYCQQWSSQPWTFGQGTKVEIK
notes: Produced as Fab; also called QP
With B9, in test [6], the “fold reduction in binding affinity against h15H6.v2” value was roughly 2 fold. In addition, in [7], the affinity, expressed as Kd, was 520 pM; the koff amounted to 0.00029 s⁻¹; the kon turned out to be 560000 M⁻¹ s⁻¹.

B10: anti-HtrA1 hybridoma antibody clone 19B12 (antibody, V domains shown)
VH: EVKLVESGGGLVEPGGSLKLACVASGFTFSSYIMSWVRQTPEKRLEWVAYISNGGGTTYYSDTIKGRFTISRDNAKNTLYLQMSTLKSEDTAIYFCARQNFRSDGSSMDYWGQGTAVTVSS
VL: NIVVTQSPASLAVSLGQRATISCRASESVDSYGKSFMHWYQQKPGQPPKLLIYLASKLESGVPARFSGSGSRTDFTLTIDPVEADDAATYYCQQNNEDPYTFGGGTKLEIK
notes: Murine mIgG2a, from hybridoma or recombinant from 293 cells; also called m19B12
Turning to B10, in [9], the “IC50, FRET blocking assay, recombinant antibody from 293 cells” value was roughly 1200 pM and the “IC50, FRET-based blocking assay (H2-Opt cleavage)” value was found to be 1400 pM. For the same molecule, the “IC50, FRET-based blocking assay (H2-Opt cleavage)” value in test [10] was 1000 pM. Further, the binding result in test [11] was “no binding”.
